Test [1] deals with Nucleolysin TIA-1 (endogenous mouse TIA1) (mouse) (UniProt P52912). Description: TIA1 IP-MS, WT1 cortex.
For test [2] the target is unchanged. Description: TIA1 IP-MS, WT2 cortex.
The target is the same in test [3]. Description: TIA1 IP-MS, WT3 cortex.
Test [4] shares this target. The experiment in a line: TIA1 IP-MS, tau KO 1 cortex.
The target is the same in test [5]. Description: TIA1 IP-MS, tau KO 2 cortex.
Test [6] has the same target. Description: TIA1 IP-MS, tau KO 3 cortex.

Chain of UniProt P52912 (P52912 whole entry): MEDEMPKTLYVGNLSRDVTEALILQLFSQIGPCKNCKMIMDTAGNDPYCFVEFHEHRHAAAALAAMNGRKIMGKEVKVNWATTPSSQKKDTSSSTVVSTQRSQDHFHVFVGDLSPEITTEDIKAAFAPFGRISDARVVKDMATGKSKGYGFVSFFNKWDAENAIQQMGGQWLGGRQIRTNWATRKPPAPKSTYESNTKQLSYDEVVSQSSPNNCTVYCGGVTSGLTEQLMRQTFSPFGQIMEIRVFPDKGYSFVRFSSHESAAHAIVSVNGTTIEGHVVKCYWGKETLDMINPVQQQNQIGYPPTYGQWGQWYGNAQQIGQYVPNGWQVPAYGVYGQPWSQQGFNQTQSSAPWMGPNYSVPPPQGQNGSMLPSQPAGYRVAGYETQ

For the substance “Heterogeneous nuclear ribonucleoprotein R (from UniProt Q8VHM5 2-632)”, the total ion current (normalized to TIA1 = 1000) worked out at 34.6 in test [1]; 374 in test [2]; 48.5 in test [3]; 26.7 in test [4]; 69.2 in test [5]; 0 in test [6].

With “Heterogeneous nuclear ribonucleoprotein U-like protein 2 (from UniProt Q00PI9 1-745)”, the total ion current (normalized to TIA1 = 1000) in test [1] is 11.1; in test [2], 53.3; in test [3], 0; in test [4], 11.7; in test [5], 17; in test [6], 0.

As for “High mobility group protein B1 (from UniProt P63158 1-215)”, the total ion current (normalized to TIA1 = 1000) in test [1] amounted to 6.6; in test [2], 182; in test [3], 38; in test [4], 15.7; in test [5], 60.8; in test [6] it was 0.

Turning to “Histone H1.4 (from UniProt P43274 2-219)”, the total ion current (normalized to TIA1 = 1000) in test [1] was found to be 0; in test [2], 56; in test [3], 78.1; in test [4], 0; in test [5], 55.4; in test [6] it was 0.

Take “Hypoxanthine-guanine phosphoribosyltransferase (from UniProt P00493 1-218)”: the total ion current (normalized to TIA1 = 1000) in test [1] is 0; in test [2], 21; in test [3], 0; in test [4], 0; in test [5], 54.1; in test [6] it was 0.

Turning to “Isocitrate dehydrogenase [NAD] subunit alpha, mitochondrial (from UniProt Q9D6R2 28-366)”, the total ion current (normalized to TIA1 = 1000) in test [1] turned out to be 0; in test [2], 186; in test [3], 138; in test [4], 0; in test [5], 155; in test [6], 0.

Consider “Isocitrate dehydrogenase [NAD] subunit, mitochondrial (from UniProt Q91VA7 34-384)”, for which the total ion current (normalized to TIA1 = 1000) in test [1] is 0; in test [2] it was 110; in test [3], 0; in test [4], 0; in test [5] it was 29.9; in test [6], 0.

Turning to “Isoform 2 of 4-aminobutyrate aminotransferase, mitochondrial (from UniProt P61922 29-444)”, the total ion current (normalized to TIA1 = 1000) was found to be 0 in test [1]; 272 in test [2]; 79.4 in test [3]; 0 in test [4]; 112 in test [5]; 0 in test [6].

Consider “Isoform 2 of AP-2 complex subunit beta (from UniProt Q9DBG3 2-951)”, for which the total ion current (normalized to TIA1 = 1000) came to 0 in test [1]; 105 in test [2]; 67.8 in test [3]; 0 in test [4]; 102 in test [5]; 0 in test [6].

As to “Isoform 2 of ATP-dependent 6-phosphofructokinase, muscle type (from UniProt P47857 1-850)”, the total ion current (normalized to TIA1 = 1000) in test [1] turned out to be 0; in test [2], 62.9; in test [3], 36.3; in test [4] it was 0; in test [5], 75.8; in test [6], 0.

On to “Isoform 2 of Alpha-adducin (from UniProt Q9QYC0 1-632)”, for which the total ion current (normalized to TIA1 = 1000) turned out to be 0 in test [1]; 121 in test [2]; 0 in test [3]; 0 in test [4]; 0 in test [5]; 0 in test [6].

On to “Isoform 2 of Beta-adducin (from UniProt Q9QYB8 1-562)”, for which the total ion current (normalized to TIA1 = 1000) in test [1] amounted to 0; in test [2] it was 346; in test [3], 0; in test [4], 0; in test [5], 32.6; in test [6], 0.

“Isoform 2 of C-terminal-binding protein 1 (from UniProt O88712 1-430)”: the total ion current (normalized to TIA1 = 1000) in test [1] is 0; in test [2] it was 65.7; in test [3], 49.3; in test [4], 0; in test [5] it was 26.6; in test [6], 0.

Take “Isoform 2 of Clathrin light chain B (from UniProt Q6IRU5 1-211)”: the total ion current (normalized to TIA1 = 1000) in test [1] stood at 3.53; in test [2], 0; in test [3] it was 0; in test [4], 0; in test [5] it was 0; in test [6], 0.

Consider “Isoform 2 of Cytosol aminopeptidase (from UniProt Q9CPY7 1-488)”, for which the total ion current (normalized to TIA1 = 1000) stood at 0 in test [1]; 80.5 in test [2]; 0 in test [3]; 0 in test [4]; 28.4 in test [5]; 0 in test [6].

Turning to “Isoform 2 of Focal adhesion kinase 1 (from UniProt P34152 2-1083)”, the total ion current (normalized to TIA1 = 1000) is 0 in test [1]; 0 in test [2]; 84.3 in test [3]; 0 in test [4]; 130 in test [5]; 0 in test [6].

As for “Isoform 2 of Gelsolin (from UniProt P13020 1-731)”, the total ion current (normalized to TIA1 = 1000) in test [1] stood at 0; in test [2], 0; in test [3] it was 0; in test [4] it was 144; in test [5], 0; in test [6], 0.

In the case of “Isoform 2 of Hepatoma-derived growth factor-related protein 2 (from UniProt Q3UMU9 1-667)”, the total ion current (normalized to TIA1 = 1000) in test [1] was determined as 0; in test [2], 282; in test [3] it was 0; in test [4] it was 0; in test [5], 97.1; in test [6] it was 0.

With “Isoform 2 of Heterogeneous nuclear ribonucleoprotein F (from UniProt Q9Z2X1 1-395)”, the total ion current (normalized to TIA1 = 1000) in test [1] came to 0; in test [2], 42.5; in test [3] it was 48.2; in test [4], 0; in test [5], 39.6; in test [6] it was 0.

Consider “Isoform 2 of Heterogeneous nuclear ribonucleoprotein Q (from UniProt Q7TMK9 2-562)”, for which the total ion current (normalized to TIA1 = 1000) amounted to 14.7 in test [1]; 249 in test [2]; 0 in test [3]; 19.8 in test [4]; 48.5 in test [5]; 0 in test [6].

Regarding “Isoform 2 of Homer protein homolog 1 (from UniProt Q9Z2Y3 1-370)”, the total ion current (normalized to TIA1 = 1000) in test [1] was 0; in test [2] it was 37.8; in test [3], 137; in test [4], 0; in test [5], 59.6; in test [6], 0.

Turning to “Isoform 2 of MICOS complex subunit Mic60 (from UniProt Q8CAQ8 34-746)”, the total ion current (normalized to TIA1 = 1000) was found to be 0 in test [1]; 64.7 in test [2]; 37.6 in test [3]; 0 in test [4]; 59 in test [5]; 0 in test [6].
